Source: the supplement of paper PMC9942255

Test system: Bacillus subtilis DB104 (SP-AmyQ fusion secretion)
Assay: AmyQ secretion efficiency, weighted average sort bin (1 = best secretion, 10 = worst) (bin number (weighted average, 1-10)); higher = lower secretion efficiency
In short: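 Designed signal peptides were fused to mature AmyQ and expressed from the amyE locus in B. subtilis DB104, and this library was loaded at about 0.3 cells per ~65 nL alginate bead together with fluorescein-starch. After about 13 h of growth at room temperature and nile red staining, occupied beads were split into 10 equally populated bins by green/red fluorescence ratio using large-particle flow cytometry. Amplicons from every bin were Illumina-sequenced. The secretion score is the average bin number weighted by read frequency and normalised to beads per bin, excluding low-abundance sequences.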

Row | Sequence | AmyQ secretion efficiency
1 | MKKAFLVFLSVVLVTTVFLVKQQESVAQPKQL | 4.94
2 | MKNMSCKLVVSVTLFFSFLTIGPLAHGQNS | 2
3 | MKKWLKKKRKKAIAIVLFMYTKGEAKAAGM | 7.14
4 | MLCVMMLLFSAIASFPVSAQEKDQ | 5.69
5 | MRKNRLLLNILALFVLSLGLLSFMVTPVSAASK | 1.08
6 | MKKAFLVFLSVVLVTTVFLVVSFESVAQAKQL | 2.33
7 | MKWMCSICCAAVLLAGGASFFGTFGPGTTAQAEAV | 4.06
8 | MRNLTKTSLLLAGLCTAARRKKKKHASAEES | 7.09
9 | MKKRLIAPMLLSAASLAFFATFMSGSAQAAAY | 3.39
10 | MLTKRLLTIYIMLLGLIRRKPGAAQAEEK | 7.69
11 | MKRLLSTLLIGIMLLTFAPSAFAAQD | 1.6
12 | MRKYTVIASILLSFLSVLFGFHHESKAFPV | 3.04
13 | MTKKAWFLPLVCVLLIVIALIFSFASGWLAPAASASAQTT | 2.12
14 | MKRIRIPMTLALGAALTIAPLSFWSAEEN | 6.56
15 | MKKLLAAGIIGLLTVEEESPSFAAEK | 6.63
16 | MKRITINIITMFIAAAVIEEDEEAEAAEK | 5.79
17 | MKFVKRRIIALVTILMLSVTSLFALQPSFTPSPFFTVAKAAEH | 2.95
18 | MLCVMMLLFSAIASFPVSFQAKDQ | 8.56
19 | MSMIGLLFMLCLAALFTIGFPAQQADAAEA | 2
20 | MPYLKRVLLLLVTGLFMSLFGDTATASAQTG | 1.23
21 | MNKPTKLFSTLALAAGMTAAAAGGAGTCHAQQP | 1.79
22 | MKKQIITATTAVVLGSTLFAGAASGQSI | 2.03
23 | MKKRFFGPIILAFILFAGAIAIEE | 6.41
24 | MRPVFPLILSAVLFLSCFFGARQTEASASPF | 2.82
25 | MLKKKWMVFLLAICLAAFGFSYNAFATEN | 3.29
26 | MTKRITYSLLALLAVVAFAFTDSSKAKAAEA | 2.05

Row | Sequence | AmyQ secretion efficiency
27 | MKVPKTMLLSTAAGLLLSLTATSVSAKRK | 5.92
28 | MLKKKWMVGLLAGCLAAGGFSYNEFATEN | 6.42
29 | MKLKKRVSMFLVALTMCGGLFVTPAKAVST | 2.23
30 | MIAYFGKCLLLVTIMFLGVLFVMQQANHG | 7.39
31 | MTMLRKKGRWSLLLCIIPLFAFTVIASGKEV | 6.17
32 | MKKKMLNLFLAAGLTASAIVGTTLVVTPAEAATI | 4.26
33 | MKKKLAAGLTASAIVGTTLVVTPAEKATI | 7.23
34 | MHLIRAAGAVCLAVVLIAGCRFNEDQHQAELENT | 6.53
35 | MFKKHSRSLLIIFLLASAVLAKPIEAHTV | 4.1
36 | MKRILLSSALSFGMLISAVPALAAGT | 2.79
37 | MKKQIITATTAVVLGSTLFAGAASAEEE | 2.04
38 | MKRRKNVCLTALLSVLLVAGSVPFHAEAKKP | 2.59
39 | MLKRTSFVSSLFISSAVLLSILLPSGQAHARKR | 3.12
40 | MKNMSCKYQQGVTLFFSFLTIGPLAHAQNS | 6.89
41 | MQLGKKLSVAVAASFMSLSISLPGVQAAEG | 2.25
42 | MKKAFILSAAAAVGLFTFGASAKEL | 5.43
43 | MKKWMITIAMLILAGIALFVFIRKKRRLKSHKT | 6.07
44 | MRKTIFAFLTGLMMFGTITAASRSPD | 6.51
45 | MRPVFPLILSAVLFLSCFFGARQTEASAEEE | 2.93
46 | MKKKKYVVLVLSIAGIGGFSVHAASS | 6.5
47 | MKKKLAAGLTASAIVGTTLVVAEAATI | 5.78
48 | MHLIRAAGAVCLAVVLIAGCRFNEDQHQFFAEGENT | 4.63
49 | MVKKWYYQSKSSLSVLSTFTYSASAVGV | 5.88
50 | MLKKIALTLCPAIVGSLLFFTAIASAHVS | 3.46
51 | MKKRLIAPMLLSAASLAFFAMSGSLQAAAY | 5.33
52 | MKKWIYVVLVLSIAGIGGFSGHAASS | 5.88

Row | Sequence | AmyQ secretion efficiency
53 | MFNRLFRVCFLAALIMAFTLPNSVYVQKP | 6.52
54 | MKRWMRKTLVVLFTIVTFGLVSPPAALMADKP | 2.03
55 | MLKKIALTLCPAIVGSLLFFTAPASPHVS | 8.85
56 | MKLKKRVSMFKKALTMCGGLFVTPAKAVKT | 7.21
57 | MTKKTKNRLISSVLSTVVISSLLFPGAAGASSK | 1.56
58 | MKRRKVLTGSVLSLGLLVSASPAFATSP | 2.61
59 | MKKRLIAPMLLSAASLAFFAMSGSAQARKK | 5.79
60 | MRNLTKTSLLLAGLCTAAEEEEEDHASAEES | 6.56
61 | MRKYTVIASILLSFLSVLKKKKHHKSKAFPV | 7.85
62 | MKKIWIGMLAAAVLLLSVFAMVPKVSLADAA | 4.61
63 | MRSYIKVLTMCFLGLILFVPTCLADNS | 2.04
64 | MKKLLAAGIIGLLTVSIASPQFAAEK | 6.75
65 | MKKLVLCVSILAVILSGVTVALTQLS | 3.8
66 | MAIIIAIIAAVIVIAALITFNVRNASPE | 6.75
67 | MKLKSKLLLSCLALSTVFVATTIVNAPTH | 5.07
68 | MTTGLLASLVLCLSLSPLVSTNEVFAATT | 4.99
69 | MKKRLIGFLVLVPALIMSGITLIEANPY | 7.07
70 | MRSYIKVLTMCFLGLILFVPTALAAEE | 3.07
71 | MMKKLFHSTLRRRRFFSFFGVQPIHAKKQ | 7.67
72 | MFNRLFRVCFLAALIMAFTLPNSVYDQKP | 6.94
73 | MGQGKGSVFLILLLMLTLVVAPKEKAEAASS | 1.82
74 | MKKFFGPIILAFILFAGAIAIPS | 6.93
75 | MFRLLVSLRVWMVFLMNWVTPDRKTAAAAVY | 7.07
76 | MKKRLIAPMLLSAASLAFFAMSGSTQAAAY | 3.66
77 | MKKRLIAPMLLSAASLAFFAMSGSAQAARR | 6.96
78 | MFFTIVAGLAVSAVVGSSMAAAPAEAKTI | 2.75

Row | Sequence | AmyQ secretion efficiency
79 | MNKPTKQRTKLALAAGMTAAAAGGAGTIHAQQP | 6.94
80 | MKKAFLVFLSVVLVTTVFLVKQQESVLQAKQL | 4.04
81 | MRNLTKTSLLLAGLCTAAQMVFVTHCSAEES | 2.79
82 | MFNRLFRVCFLAALIMAFTLPNSLYAQKP | 2.72
83 | MRGKSAVLLSLIMLIAGFLISFLFQM | 7.41
84 | MLCVMMLLFSAIAEEEDEEAQAKDQ | 7.25
85 | MNKKYGVLIVCIIFTSALFPTFSSVTAAQG | 1.02
86 | MSTGTSGSLISSLIVLSTVVISSLLFPGAAGASSK | 2.34
87 | MTMLRKIIGWILLLCIIPLFAFTVIASVKEV | 7.89
88 | MPYLKRVRRRRRRGLFMSLFAVTATASAQTG | 6.28
89 | MKKSQYFIVFICFFVLFSVHPIAAARADS | 3.7
90 | MKLKKRVSMFLVALTMCGTPAKAVKT | 2.72
91 | MMKKGLLAGALTATVLFGTCAVDVPGIISPKTAEAASR | 2.71
92 | MKRLLSTLLIGIMLLEQQPKAFAKQD | 1.64
93 | MKKWMITIAMLKKAGIALFVFISPLKSHKT | 6.51
94 | MKLKKRVSMFLVALTMCGGLFVTPAKAEEE | 2.9
95 | MKKRITYSGSQLLAVVAFAFTDSSKAKAAEA | 8.92
96 | MLKKVILAAFILVGSTLGRRKRKSRASAKHV | 5.28
97 | MKSKWMSGLLLVAVGFSFTQVMVHHGET | 6.33
98 | MKKWIYVVLVLSIAGIGGFSVHWASS | 7.53
99 | MRKTIFAFLTGLMMFGTITAASASPF | 4.61
100 | MFNRLFRVCFLAALIMAFTLPNSQYAQKP | 7.49
101 | MKSKWMSGLLLVAVGFSFRKKKKKVHAGET | 7.2
102 | MRSYIKVLTMCFLGLILFVPTMLADNS | 3.1
103 | MKSKWMSGLLLVAVGFSFTQVMTSFFTPASPVHAGET | 6.76
104 | MHLIRAAGAVCLAVVLIAGCRFNEDQHQAEMENT | 6.08

Row | Sequence | AmyQ secretion efficiency
105 | MKLAKRVSALTPSTTLAITSKAKEL | 8.31
106 | MKVLLSALLLLLFAFEPSASGASL | 2.94
107 | MKVLLSALLLLLFAFEPSASDKKL | 6.18
108 | MKKAAAVLLSLGLVFGFSYGAGHVDEAKTK | 7.45
109 | MKVCQKSIVRSTTRQRIGTFVISVPFMANAQSD | 7.4
110 | MKKKQVMLALTAAAGLGLTALHSAPAAKIAPL | 6.05
111 | MKKRLIGFLVLVPALIMSGITLIESNKK | 5.98
112 | MKKMNFSSNSIIVMLATALFLGLTPAGANAADL | 4.32
113 | MLCKKMLLFSAIASFPVSAQAKDQ | 4.84
114 | MPKKCSVCLWILVLLLSCLSGKSAYAATS | 2.99
115 | MRKYTVIASILLSFLSVLSGGHHESKARRR | 7.19
116 | MKRLLVSLRVWMVFLMNWVTPDRKTHAAAVY | 6.55
117 | MKKAAAVLLSLGLVFVFVYGAGHVAEAKTK | 2.4
118 | MKRSYVSLRVWMVFLMNWVTPDRKTAAAAVY | 6.51
119 | MKKKIVAGLAVSAVVIVAMAAAIAEAKTI | 6.55
120 | MKKKQRAGLTASAIVGTTLVVTPAEAATI | 6.45
121 | MKLAKRVSALTPSTTLAITAKAARK | 7.54
122 | MGLGKKLSVAVAASFMSLSISLPGVQDAEG | 3.93
123 | MKKAFILSAAAAVGLFTFGGVQQASCKEL | 2.66
124 | MKKAWFLPLVCVLLISGWLAPAASASAQTT | 2.33
125 | MGSSLAAGLTASAIVGTTLVVTPAEAATI | 4.99
126 | MKLAKRVSALTPSTTLAITAKIKEL | 7.25
127 | MKSLPYTIALLFCGLIIVSMAAKGHKK | 6.13
